Source: the Human Domainome abundance scans (Beltran et al. 2025)
± gives the uncertainty stated by the source.

B1: Myocardin, residues 363 to 406; numbered along this chain, Q8IZQ8 (parent)
chain: KPGPLPPNLDDLKVSELRQQLRIRGLPVSGTKTALMDRLRPFQD

Variants of: B1
Assay: abundance fitness (aPCA) (normalised: wild type 0, dead -1); higher = more abundant; growth selection in yeast, the domain comes from the species named
Details: Homo sapiens

Point of comparison: T33D, abundance fitness 0.138 ± 0.1. Against it:
- R38N — lower, -0.765 ± 0.2
- S15L — lower, -0.688 ± 0.17
- P6N — lower, -0.34 ± 0.16
- P7N — within error, 0.346 ± 0.14
- Q20K — lower, -0.314 ± 0.1
- T33W — lower, -0.467 ± 0.099
- R18W — lower, -0.861 ± 0.19
- A34T — within error, -0.076 ± 0.12
- R22P — lower, -0.818 ± 0.14
- Q19C — lower, -0.464 ± 0.093
- F42Q — lower, -0.06 ± 0.093
- K1I — within error, 0.021 ± 0.11
- L35P — lower, -0.578 ± 0.079
- D10R — lower, -0.147 ± 0.065
- P41V — lower, -0.11 ± 0.087
- L21A — lower, -0.037 ± 0.061
- P2Y — within error, 0.136 ± 0.35
- T31W — lower, -0.994 ± 0.13
- P27D — within error, 0.162 ± 0.071
- R38Y — lower, -0.519 ± 0.12
- A34R — lower, -0.642 ± 0.073
- R24V — lower, -0.528 ± 0.1
- A34V — within error, 0.026 ± 0.084
- N8I — lower, -0.408 ± 0.23
- K32W — lower, -0.759 ± 0.1
- D37G — lower, -0.404 ± 0.059
- F42C — lower, -0.138 ± 0.082
- L21S — lower, -0.94 ± 0.15
- L17E — lower, -0.454 ± 0.09
- V28P — lower, -0.198 ± 0.074
- T31G — lower, -0.214 ± 0.06
- S15H — within error, 0.023 ± 0.18
- D11S — within error, 0.27 ± 0.082
- D37M — within error, -0.264 ± 0.44
- T31K — lower, -0.217 ± 0.16
- R24L — lower, -0.429 ± 0.12
- R24S — lower, -0.881 ± 0.16
- I23W — lower, -0.291 ± 0.085
- D10S — lower, -0.257 ± 0.075
- N8C — lower, -0.342 ± 0.14
- G30E — lower, -0.607 ± 0.11
- R18M — lower, -0.503 ± 0.11
- P2T — within error, -0.016 ± 0.13
- Q20R — lower, -0.602 ± 0.11
- G30V — lower, -0.894 ± 0.096
- L17T — lower, -0.779 ± 0.13
- Q43I — lower, -0.109 ± 0.14
- L17Y — lower, -1.02 ± 0.22
- Q43S — lower, -0.061 ± 0.083
- A34S — lower, -0.223 ± 0.085
- F42W — lower, -0.124 ± 0.065
- L17K — lower, -0.345 ± 0.12
- L9V — within error, -0.024 ± 0.072
- Q43P — lower, -0.625 ± 0.1
- P6S — lower, -0.095 ± 0.078
- P41K — lower, -0.305 ± 0.077
- G3K — within error, 0.245 ± 0.12
- L5Q — lower, -0.131 ± 0.1
- G30A — lower, -0.967 ± 0.14
- P6A — within error, -0.02 ± 0.094
- V14P — lower, -0.247 ± 0.16
- L17I — lower, -0.6 ± 0.44
- L9E — lower, -0.807 ± 0.1
- D37N — within error, 0.227 ± 0.14
- D37W — lower, -0.829 ± 0.1
- P6D — lower, -0.195 ± 0.12
- L9W — lower, -0.615 ± 0.1
- K32E — lower, -0.286 ± 0.085
- T31E — within error, -0.01 ± 0.11
- D11W — lower, -0.441 ± 0.093
- R40I — lower, -0.205 ± 0.19
- P7V — within error, 0.227 ± 0.066
- Q19V — lower, -0.544 ± 0.096
- R22T — lower, -0.258 ± 0.12
- L21E — lower, -0.42 ± 0.096
- P2A — within error, 0.25 ± 0.061
- T31F — lower, -0.718 ± 0.39
- Q43F — within error, 0.028 ± 0.21
- E16R — lower, -0.827 ± 0.12
- P27C — lower, -0.216 ± 0.1
- Q19D — within error, -0.05 ± 0.14
- E16K — lower, -0.842 ± 0.28
- N8M — lower, -0.274 ± 0.17
- G3A — within error, 0.126 ± 0.088
- M36S — lower, -0.64 ± 0.12
- R22Q — lower, -0.928 ± 0.16
- T33E — within error, 0.292 ± 0.078
- L9G — lower, -0.491 ± 0.061
- F42G — lower, -0.278 ± 0.057
- V28C — within error, 0.207 ± 0.094
- P7Q — within error, 0.266 ± 0.073
- V28K — lower, -0.436 ± 0.14
- P41L — lower, -0.132 ± 0.082
- D44Q — lower, -0.206 ± 0.18
- D11F — lower, -0.175 ± 0.16
- L39M — lower, -0.409 ± 0.12
- D44R — within error, -0.03 ± 0.2
- T33I — within error, 0.085 ± 0.14
- P2W — lower, -0.231 ± 0.093
- P4F — higher, 0.755 ± 0.26
- L26P — lower, -0.676 ± 0.38
- L5K — lower, -0.514 ± 0.19
- L12D — lower, -0.429 ± 0.09
- K32C — lower, -0.763 ± 0.16
- L5T — lower, -0.302 ± 0.087
- S15Q — lower, -0.261 ± 0.076
- R38G — lower, -0.469 ± 0.071
- N8S — lower, -0.444 ± 0.085
- L39G — lower, -0.528 ± 0.1
- P7D — within error, 0.052 ± 0.13
- G25N — within error, -0.024 ± 0.18
- L12W — lower, -0.315 ± 0.085
- N8R — lower, -0.116 ± 0.058
- L21G — lower, -0.68 ± 0.069
- F42D — within error, -0.061 ± 0.18
- V14G — lower, -0.757 ± 0.1
- M36W — lower, -0.935 ± 0.089
- P41S — within error, 0.064 ± 0.11
- P4T — within error, 0.329 ± 0.099
- F42L — within error, 0.111 ± 0.068
- Q19E — within error, 0.029 ± 0.087
- Q43M — within error, -0.031 ± 0.07
- S29K — lower, -0.113 ± 0.081
- E16D — lower, -0.27 ± 0.14
- P2N — within error, -0.011 ± 0.13
- L39I — lower, -0.474 ± 0.18
- G25R — lower, -0.401 ± 0.09
- D37L — lower, -0.51 ± 0.079
- P4C — within error, -0.079 ± 0.13
- T31Q — lower, -0.273 ± 0.12
- R18L — lower, -0.44 ± 0.091
- P7I — within error, 0.107 ± 0.16
- F42M — lower, -0.242 ± 0.1
- D37I — lower, -0.594 ± 0.16
- G3M — within error, 0.146 ± 0.076
- K32V — lower, -0.357 ± 0.09
- F42N — lower, -0.736 ± 0.36
- Q19S — lower, -0.261 ± 0.09
- P41E — within error, 0.087 ± 0.088
- R24W — lower, -0.732 ± 0.14
- T33Q — lower, -0.385 ± 0.21
- K32M — lower, -0.696 ± 0.16
- R24G — lower, -0.878 ± 0.11
- K32S — lower, -0.905 ± 0.11
- R40K — within error, 0.194 ± 0.1
- Q20Y — lower, -0.38 ± 0.13
- V14S — lower, -0.486 ± 0.15
- G30N — lower, -0.871 ± 0.48
- E16V — lower, -0.481 ± 0.079
- L9A — lower, -0.876 ± 0.12
- P6E — lower, -0.131 ± 0.11
- L5S — lower, -0.341 ± 0.12
- I23Y — within error, 0.013 ± 0.098
- N8L — lower, -0.35 ± 0.06
- P7E — within error, 0.253 ± 0.071
- P6I — lower, -0.361 ± 0.12
- N8H — lower, -0.373 ± 0.12
- S29A — lower, -0.071 ± 0.064
- S29N — lower, -0.264 ± 0.21
- P2D — within error, 0.407 ± 0.18
- M36Q — lower, -0.398 ± 0.16
- D10W — within error, 0.104 ± 0.082
- L26M — within error, 0.075 ± 0.13
- F42Y — lower, -0.102 ± 0.1
- P27V — lower, -0.73 ± 0.12
- S29G — within error, 0.042 ± 0.07
